Among the data in patent US20150045540A1 (published 2015) are EC50 values, retold here.

The target of test [1] is T1, Placenta Growth Factor (PlGF), human (human, UniProt P49763 21-149).
T1 chain: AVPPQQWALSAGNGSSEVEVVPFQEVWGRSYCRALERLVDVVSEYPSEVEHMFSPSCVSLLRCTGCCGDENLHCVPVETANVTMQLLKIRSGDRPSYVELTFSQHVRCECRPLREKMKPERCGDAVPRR
The experiment in a line: ELISA. Background: An ELISA detects its analyte on a solid surface through an enzyme-linked reagent.

Test [2] addresses Hepatocyte Growth Factor (HGF), human (human, UniProt P14210 32-728). The experiment in a line: ELISA.

Chain of Hepatocyte Growth Factor (HGF), human (P14210 32-728): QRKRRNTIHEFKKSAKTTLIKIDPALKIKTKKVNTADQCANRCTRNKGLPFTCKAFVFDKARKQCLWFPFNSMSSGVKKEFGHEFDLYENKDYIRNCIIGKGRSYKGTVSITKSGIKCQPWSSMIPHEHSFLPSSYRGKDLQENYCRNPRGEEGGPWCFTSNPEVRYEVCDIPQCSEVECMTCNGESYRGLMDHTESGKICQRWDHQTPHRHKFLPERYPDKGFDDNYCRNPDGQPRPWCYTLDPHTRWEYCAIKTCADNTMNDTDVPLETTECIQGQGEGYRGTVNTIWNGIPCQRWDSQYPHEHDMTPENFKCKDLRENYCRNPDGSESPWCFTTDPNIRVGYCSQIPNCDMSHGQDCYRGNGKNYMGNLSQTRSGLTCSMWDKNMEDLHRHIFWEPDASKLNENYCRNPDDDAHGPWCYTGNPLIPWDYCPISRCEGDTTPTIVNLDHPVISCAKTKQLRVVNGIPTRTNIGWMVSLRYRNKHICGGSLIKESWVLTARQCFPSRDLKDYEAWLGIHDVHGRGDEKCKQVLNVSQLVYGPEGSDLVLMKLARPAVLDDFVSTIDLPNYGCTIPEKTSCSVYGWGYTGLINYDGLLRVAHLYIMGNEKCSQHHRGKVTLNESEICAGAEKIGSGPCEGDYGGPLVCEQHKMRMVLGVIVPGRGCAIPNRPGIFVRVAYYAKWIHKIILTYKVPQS

B1: HC 10/SLC 15 (antibody)
chain 1: GQGTLVTVSSASTKGPSVFPQPVLHQPPAMSSALGTTIRLTCTLRNDHDIGVYSVYWYQQRPGHPPRFLLRYFSQSDKSQGPQVPPRFSGSKDVARNRGYLSISELQPEDEAMYYCAMGARSRCWPRGFQSKHNSVTHVFGSGTQLTVLSQPKATPSVTLFPPSSEELQANKATLVCLMNDFYPGILTVTWKADGTPITQGVEMTTPSKQSNNKYAASSYLSLTPEQWRSRRSYSCQVMHEGSTVEKTVAPAECS
chain 2: MSWAPVLLMLFVYCTGCGPQPVLHQPPAMSSALGTTIRLTCTLRNDHDIGVYSVYWYQQRPGHPPRFLLRYFSQSDKSQGPQVPPRFSGSKDVARNRGYLSISVTHVFGSGTQLTVLSQPKATPSVTGGGGSQVQLVQ
Usually EC50 stands for the concentration that produces a half-maximal response. High values mean a less potent agent, low ones a more potent agent. Take B1: the EC50 in test [1] came out at 0.049 nM; in test [2] it was 0.054 nM.

B2: HC 6/SLC 6 (antibody)
chain 1: GQGTLVTVSSASTKGPQPVLHQPPAMSSALGTTIRLTCTLRNDHDIGVYSVYWYQQRPGHPPRFLLRYFSQSDKSQGPQVPPRFSGSKDVARNRGYLSISELQPEDEAMYYCAMGARSRCWPRGFQSKHNSVTHVFGSGTQLTVLSQPKATPSVTLFPPSSEELQANKATLVCLMNDFYPGILTVTWKADGTPITQGVEMTTPSKQSNNKYAASSYLSLTPEQWRSRRSYSCQVMHEGSTVEKTVAPAECS
chain 2: MSWAPVLLMLFVYCTGCGPQPVLHQPPAMSSALGTTIRLTCTLRNDHDIGVYSVYWYQQRPGHPPRFLLRYFSQSDKSQGPQVPPRFSGSKDVARNRGYLSISVTHVFGSGTQLTVLSQPKATQVQLVQ
For the molecule B2, the EC50 in test [1] worked out at 0.139 nM; in test [2], 0.061 nM.

B3: HC 3/SLC 3 (antibody)
chain 1: GQGTLVTVSSASTQPVLHQPPAMSSALGTTIRLTCTLRNDHDIGVYSVYWYQQRPGHPPRFLLRYFSQSDKSQGPQVPPRFSGSKDVARNRGYLSISELQPEDEAMYYCAMGARSRCWPRGFQSKHNSVTHVFGSGTQLTVLSQPKATPSVTLFPPSSEELQANKATLVCLMNDFYPGILTVTWKADGTPITQGVEMTTPSKQSNNKYAASSYLSLTPEQWRSRRSYSCQVMHEGSTVEKTVAPAECS
chain 2: MSWAPVLLMLFVYCTGCGPQPVLHQPPAMSSALGTTIRLTCTLRNDHDIGVYSVYWYQQRPGHPPRFLLRYFSQSDKSQGPQVPPRFSGSKDVARNRGYLSISVTHVFGSGTQLTVLSQPQVQLVQ
Take B3: the figures for the EC50 in test [1] and in test [2] were 0.135 nM and 0.055 nM, respectively.

B4: HC 3/SLC 2 (antibody)
chain 1: B3 chain 1
chain 2: MSWAPVLLMLFVYCTGCGPQPVLHQPPAMSSALGTTIRLTCTLRNDHDIGVYSVYWYQQRPGHPPRFLLRYFSQSDKSQGPQVPPRFSGSKDVARNRGYLSISVTHVFGSGTQLTVLSQQVQLVQ
B4: the EC50 amounted to 0.163 nM in test [1] and 0.053 nM in test [2].

B5: HC 8/SLC 3 (antibody)
chain 1: GQGTLVTVSSASTKGPSVQPVLHQPPAMSSALGTTIRLTCTLRNDHDIGVYSVYWYQQRPGHPPRFLLRYFSQSDKSQGPQVPPRFSGSKDVARNRGYLSISELQPEDEAMYYCAMGARSRCWPRGFQSKHNSVTHVFGSGTQLTVLSQPKATPSVTLFPPSSEELQANKATLVCLMNDFYPGILTVTWKADGTPITQGVEMTTPSKQSNNKYAASSYLSLTPEQWRSRRSYSCQVMHEGSTVEKTVAPAECS
chain 2: B3 chain 2
As to B5, the figures for the concentration giving a half-maximal response (EC50) in test [1] and in test [2] were 0.196 nM and 0.071 nM, respectively.

B6: HC 4/SLC 4 (antibody)
chain 1: GQGTLVTVSSASTKQPVLHQPPAMSSALGTTIRLTCTLRNDHDIGVYSVYWYQQRPGHPPRFLLRYFSQSDKSQGPQVPPRFSGSKDVARNRGYLSISELQPEDEAMYYCAMGARSRCWPRGFQSKHNSVTHVFGSGTQLTVLSQPKATPSVTLFPPSSEELQANKATLVCLMNDFYPGILTVTWKADGTPITQGVEMTTPSKQSNNKYAASSYLSLTPEQWRSRRSYSCQVMHEGSTVEKTVAPAECS
chain 2: MSWAPVLLMLFVYCTGCGPQPVLHQPPAMSSALGTTIRLTCTLRNDHDIGVYSVYWYQQRPGHPPRFLLRYFSQSDKSQGPQVPPRFSGSKDVARNRGYLSISVTHVFGSGTQLTVLSQPKQVQLVQ
As to B6, the results for the EC50 in test [1] and in test [2] were 0.196 nM and 0.058 nM, respectively.

B7: HC 2/SLC 7 (antibody)
chain 1: GQGTLVTVSSASQPVLHQPPAMSSALGTTIRLTCTLRNDHDIGVYSVYWYQQRPGHPPRFLLRYFSQSDKSQGPQVPPRFSGSKDVARNRGYLSISELQPEDEAMYYCAMGARSRCWPRGFQSKHNSVTHVFGSGTQLTVLSQPKATPSVTLFPPSSEELQANKATLVCLMNDFYPGILTVTWKADGTPITQGVEMTTPSKQSNNKYAASSYLSLTPEQWRSRRSYSCQVMHEGSTVEKTVAPAECS
chain 2: MSWAPVLLMLFVYCTGCGPQPVLHQPPAMSSALGTTIRLTCTLRNDHDIGVYSVYWYQQRPGHPPRFLLRYFSQSDKSQGPQVPPRFSGSKDVARNRGYLSISVTHVFGSGTQLTVLSQPKATPQVQLVQ
For B7, the values for the EC50 in test [1] and in test [2] were 0.148 nM and 0.055 nM, respectively.

B8: HC 8/SLC 7 (antibody)
chain 1: B5 chain 1
chain 2: B7 chain 2
As to B8, the EC50 in test [1] was 0.085 nM; in test [2], 0.058 nM.

B9: HC 10/SLC 7 (antibody)
chain 1: B1 chain 1
chain 2: B7 chain 2
On to B9, for which the figures for the EC50 in test [1] and in test [2] were 0.056 nM and 0.059 nM, respectively.

B10: HC 2/SLC 5 (antibody)
chain 1: B7 chain 1
chain 2: MSWAPVLLMLFVYCTGCGPQPVLHQPPAMSSALGTTIRLTCTLRNDHDIGVYSVYWYQQRPGHPPRFLLRYFSQSDKSQGPQVPPRFSGSKDVARNRGYLSISVTHVFGSGTQLTVLSQPKAQVQLVQ
For the molecule B10, the EC50 came out at 0.248 nM in test [1] and 0.052 nM in test [2].
